Assay results: patent US20060014680A1, “Peptides and compounds that bind to the IL-5 receptor” (priority 2004, published 2006)
Positions of bridges follow the written chain, without caps; N, C: chain ends.

Target: T1, human IL-5Rα extracellular domain (Homo sapiens, UniProt Q01344)
T1 construct: human IL-5Rα extracellular domain harvest; made in house; host or cells: CHO cells
T1 sequence (Q01344 21-342 limits assumed): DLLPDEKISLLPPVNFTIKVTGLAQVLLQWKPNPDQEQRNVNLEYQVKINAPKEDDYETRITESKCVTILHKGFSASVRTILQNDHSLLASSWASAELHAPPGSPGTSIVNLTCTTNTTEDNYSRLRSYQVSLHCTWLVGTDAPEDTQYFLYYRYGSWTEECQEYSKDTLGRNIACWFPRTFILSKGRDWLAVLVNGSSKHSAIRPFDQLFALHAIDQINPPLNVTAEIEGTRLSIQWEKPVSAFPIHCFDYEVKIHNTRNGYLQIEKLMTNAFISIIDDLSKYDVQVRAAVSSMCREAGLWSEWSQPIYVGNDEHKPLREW
Assay: IL-5 receptor-ligand Alpha Quest binding assay (alanine scan of AF17121, FIG. 1)
Details: relative to parent monomer AF17121 (SEQ ID NO:1); single Ala substitution
Protocol: The affinity of compounds for the IL-5 receptor was tested in a homogeneous Alpha Quest binding assay. The peptides tested were solubilized at approximately 10 mM in DMSO. Each peptide was then serially diluted into freshly made, sterile filtered assay buffer (40 mM Hepes, pH 7.4 with NaOH, containing 1 mM MgCl2, 0.1% BSA and 0.05% Tween-20). Four microliters of each test compound dilution was transferred in triplicate to a 384-well, low volume, white, polypropylene Griener plate (E&K Scientific #31075). A mixture was prepared in assay buffer containing Packard Bioscience AlphaScreen streptavidin coated donor beads at […], MAb179 (prepared as described in Whitehom, E., A Generic Method for Expression and Use of “Tagged” Soluble Versions of Cell Surface Receptor, Biotechnolgy 1995, 13, 1215-1219) conjugated Packard Bioscience Alpha Screen acceptor beads per manufactures protocol, at 40 ug/mL, and human IL-5Rα extracellular domain harvest with a MAb 179 epitope tag prepared as previously described (England, B., A Potent Dimeric Peptide Antagonist of Interleukin-5 that Binds Two Interleukin-5 Receptor α Chains, PNAS, vol.97, no. 12, 6862-6867). Two microliters of beads and receptor harvest mixture were added to each assay well. Alpha Quest beads are light sensitive so all steps after the introduction of the beads were carried out under green lighting (lights adapted with Roscolux Chroma Green #389 filter sleeves which transmit <1% at 680 nm). After a 5-10 minute room temperature incubation, two microliters of 62.4 nM biotinylated MBP-AF12368, GEVCTRDVANHRWMCGVD (SEQ ID NO 73), tracer peptide (prepared as described in Schatz P., Use of Peptide Libraries to Map the Substrate Specificity of a Peptide-Modifying Enzyme: A 13 Residue Consensus Peptide Specifies Biotinylation in Escherichia coli, Biotechnology 1993, 11, 1138-1143) diluted in assay buffer was added to each well. The assay plate was spun to 55 rpm in a plate centrifuge, sealed with Packard Top Seal, wrapped in foil and placed in a room temperature incubator in the instrument room. The plate was read after 16-20 hours using a Packard Bioscience Alpha Quest Discovery™ plate reader.
Results for various compound embodiments of the invention are depicted in FIGS. 1-4 and 6-8.

Molecule	more potent (peptide monomer with single alanine substitution)
Ac-ADECWRIIASHTWFCAEE-NH2 (cysteine pairing not given here) [AF35921]	about 350%
Ac-VDECWRIIAAHTWFCAEE-NH2 (cysteine pairing not given here) [AF35912]	about 450%
Ac-VDECWRIIASHAWFCAEE-NH2 (cysteine pairing not given here) [AF35910]	about 135%
Ac-Val Ala Glu Cys Trp Arg Ile Ile Ala Ser His Thr Trp Phe Cys Ala Glu Glu-NH2 (Ac-VAECWRIIASHTWFCAEE-NH2; not fully specified (bridges); printed as Ac-Val Ala Glu Cys Trp Arg Ile Ile Ala Ser His Thr Trp Phe Cys Ala Glu Glu-NH2; cysteine pairing not given here) [AF35920]	about 200%
Ac-Val Asp Ala Cys Trp Arg Ile Ile Ala Ser His Thr Trp Phe Cys Ala Glu Glu-NH2 (Ac-VDACWRIIASHTWFCAEE-NH2; not fully specified (bridges); printed as Ac-Val Asp Ala Cys Trp Arg Ile Ile Ala Ser His Thr Trp Phe Cys Ala Glu Glu-NH2; cysteine pairing not given here) [AF35918]	about 675%

Target: T2, human IL-5Rα extracellular domain harvest with a MAb 179 epitope tag (human, UniProt Q01344 21-342)
T2 construct: extracellular domain; Captured on MAb179-conjugated AlphaScreen acceptor beads; also called IL-5 receptor; IL-5R-α chain ECD
T2 sequence (looked up): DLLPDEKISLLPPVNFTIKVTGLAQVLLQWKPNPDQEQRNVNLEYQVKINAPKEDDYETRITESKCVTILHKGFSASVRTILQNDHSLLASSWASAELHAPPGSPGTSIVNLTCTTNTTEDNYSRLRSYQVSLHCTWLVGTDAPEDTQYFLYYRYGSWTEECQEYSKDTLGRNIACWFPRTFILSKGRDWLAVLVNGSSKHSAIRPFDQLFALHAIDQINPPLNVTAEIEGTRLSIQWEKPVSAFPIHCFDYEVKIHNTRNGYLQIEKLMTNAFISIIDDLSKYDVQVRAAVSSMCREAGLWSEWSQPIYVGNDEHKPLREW
Assay: alanine scan of AF17121, AlphaQuest competition binding assay on human IL-5Rα ECD with the tracer biotinylated MBP-AF12368 (the assay is named by FIG. 1, not by the sentence)
Details: not given
Protocol: The affinity of compounds for the IL-5 receptor was tested in a homogeneous Alpha Quest binding assay. The peptides tested were solubilized at approximately 10 mM in DMSO. Each peptide was then serially diluted into freshly made, sterile filtered assay buffer (40 mM Hepes, pH 7.4 with NaOH, containing 1 mM MgCl₂, 0.1% BSA and 0.05% Tween-20). Four microliters of each test compound dilution was transferred in triplicate to a 384-well, low volume, white, polypropylene Griener plate (E&K Scientific #31075). A mixture was prepared in assay buffer containing Packard Bioscience AlphaScreen streptavidin coated donor beads at […], MAb179 (prepared as described in Whitehom, E., A Generic Method for Expression and Use of “Tagged” Soluble Versions of Cell Surface Receptor, Biotechnolgy 1995, 13, 1215-1219) conjugated Packard Bioscience Alpha Screen acceptor beads per manufactures protocol, at 40 ug/mL, and human IL-5Rα extracellular domain harvest with a MAb 179 epitope tag prepared as previously described (England, B., A Potent Dimeric Peptide Antagonist of Interleukin-5 that Binds Two Interleukin-5 Receptor α Chains, PNAS, vol.97, no. 12, 6862-6867). Two microliters of beads and receptor harvest mixture were added to each assay well. Alpha Quest beads are light sensitive so all steps after the introduction of the beads were carried out under green lighting (lights adapted with Roscolux Chroma Green #389 filter sleeves which transmit <1% at 680 nm). After a 5-10 minute room temperature incubation, two microliters of 62.4 nM biotinylated MBP-AF12368, […] (SEQ ID NO 73), tracer peptide (prepared as described in Schatz P., Use of Peptide Libraries to Map the Substrate Specificity of a Peptide-Modifying Enzyme: A 13 Residue Consensus Peptide Specifies Biotinylation in Escherichia coli, Biotechnology 1993, 11, 1138-1143) diluted in assay buffer was added to each well. The assay plate was spun to 55 rpm in a plate centrifuge, sealed with Packard Top Seal, wrapped in foil and placed in a room temperature incubator in the instrument room. The plate was read after 16-20 hours using a Packard Bioscience Alpha Quest Discovery™ plate reader.

Molecule	percent more potent than AF17121 (SEQ ID NO: 1)
Ac-ADECWRIIASHTWFCAEE-NH2 (disulfide 4-15 (inferred)) [AF35921 (Ac-Ala Asp Glu Cys Trp Arg Ile Ile Ala Ser His Thr Trp Phe Cys Ala Glu Glu-NH2)]	~350%
Ac-VDACWRIIASHTWFCAEE-NH2 (disulfide 4-15 (inferred)) [AF35918 (Ac-Val Asp Ala Cys Trp Arg Ile Ile Ala Ser His Thr Trp Phe Cys Ala Glu Glu-NH2)]	~675%
Ac-VDECWRIIASHAWFCAEE-NH2 (disulfide 4-15 (inferred)) [AF35910 (Ac-Val Asp Glu Cys Trp Arg Ile Ile Ala Ser His Ala Trp Phe Cys Ala Glu Glu-NH2)]	~135%
Ac-VAECWRIIASHTWFCAEE-NH2 (disulfide 4-15 (inferred)) [AF35920 (Ac-Val Ala Glu Cys Trp Arg Ile Ile Ala Ser His Thr Trp Phe Cys Ala Glu Glu-NH2)]	~200%
Ac-VDECWRIIAAHTWFCAEE-NH2 (disulfide 4-15 (inferred)) [AF35912 (Ac-Val Asp Glu Cys Trp Arg Ile Ile Ala Ala His Thr Trp Phe Cys Ala Glu Glu-NH2)]	~450%

Target: T3, human IL-5 receptor (Homo sapiens, UniProt P32927+Q01344)
T3 construct: endogenous in cells; host or cells: HL60 subclone induced towards eosinophil differentiation with sodium butyrate
T3 sequence (Q01344 21-420): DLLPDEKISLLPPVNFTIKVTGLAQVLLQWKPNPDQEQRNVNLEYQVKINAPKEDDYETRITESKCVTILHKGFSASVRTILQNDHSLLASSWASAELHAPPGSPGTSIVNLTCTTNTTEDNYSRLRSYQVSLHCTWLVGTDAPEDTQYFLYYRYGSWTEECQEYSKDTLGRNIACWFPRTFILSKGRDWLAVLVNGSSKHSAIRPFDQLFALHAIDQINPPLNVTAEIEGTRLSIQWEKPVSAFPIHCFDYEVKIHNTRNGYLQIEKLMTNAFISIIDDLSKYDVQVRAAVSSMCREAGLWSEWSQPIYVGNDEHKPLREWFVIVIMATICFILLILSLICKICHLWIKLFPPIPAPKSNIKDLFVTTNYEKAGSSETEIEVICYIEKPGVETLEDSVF
T3 sequence (P32927 17-897): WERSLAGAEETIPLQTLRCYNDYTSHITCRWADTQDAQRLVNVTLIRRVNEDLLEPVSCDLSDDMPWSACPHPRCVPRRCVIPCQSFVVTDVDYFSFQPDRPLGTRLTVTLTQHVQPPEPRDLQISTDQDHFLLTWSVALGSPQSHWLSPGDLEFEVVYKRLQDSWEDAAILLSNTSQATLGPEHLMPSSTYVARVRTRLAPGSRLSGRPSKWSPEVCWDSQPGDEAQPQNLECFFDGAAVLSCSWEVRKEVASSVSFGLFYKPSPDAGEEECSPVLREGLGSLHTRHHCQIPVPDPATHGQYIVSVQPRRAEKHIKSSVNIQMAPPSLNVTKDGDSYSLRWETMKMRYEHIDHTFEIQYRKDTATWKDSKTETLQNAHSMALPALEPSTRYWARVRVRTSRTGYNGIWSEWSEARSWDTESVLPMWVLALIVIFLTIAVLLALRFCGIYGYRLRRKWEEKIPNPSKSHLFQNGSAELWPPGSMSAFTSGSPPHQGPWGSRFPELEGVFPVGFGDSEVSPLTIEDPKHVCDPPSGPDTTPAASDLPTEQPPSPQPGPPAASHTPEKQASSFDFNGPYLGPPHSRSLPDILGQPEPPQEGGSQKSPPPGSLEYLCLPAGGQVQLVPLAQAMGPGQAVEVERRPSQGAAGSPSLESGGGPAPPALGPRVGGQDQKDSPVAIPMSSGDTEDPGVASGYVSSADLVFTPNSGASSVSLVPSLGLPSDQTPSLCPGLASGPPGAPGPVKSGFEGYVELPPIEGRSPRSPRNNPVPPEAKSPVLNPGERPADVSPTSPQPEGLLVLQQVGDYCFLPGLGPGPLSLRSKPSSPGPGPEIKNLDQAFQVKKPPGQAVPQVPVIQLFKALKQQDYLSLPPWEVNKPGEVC
Assay: not given
Details: high affinity IL-5 binding sites; HL60 subclone, eosinophilic differentiation initiated with sodium butyrate; cited from earlier work

Molecule	Kd
IL-5: lymphokine secreted by T cells and mast cells, having biological activities on B cells and eosinophils	30 pM
